From patent JP2012050437A come the findings set out here.

Assay [1] has as its target Aβ peptide (bio-DAE peptide). The assay can be described thus: Biacore (data not shown); the immobilised Aβ antigen is not given.
For assay [2], the target named is aggregated synthetic Aβ1-42 (human) (UniProt P05067). Put plainly: competition Aβ1-42 ELISA; competitor biotin-conjugated m12A11Cγ2a at a fixed concentration. On the technique in general: ELISA stands for enzyme-linked immunosorbent assay.

As usually defined, the Kd is the constant that tells how readily two partners part at equilibrium. A high value points to lower affinity.

B1: humanized 12A11 antibody, version 1 (antibody, V domains shown)
VH: QVQLVESGGGVVQPGRSLRLSCAFSGFSLSTSGMSVGWIRQAPGKGLEWLAHIWWDDDKYYNPSLKSRLTISKDTSKNTVYLQMNSLRAEDTAVYYCARRTTTADYFAYWGQGTTVTVSS
VL: DVVMTQSPLSLPVTPGEPASISCRSSQSIVHSNGNTYLEWYLQKPGQSPQLLIYKVSNRFSGVPDRFSGSGSGTDFTLKISRVEAEDVGVYYCFQSSHVPLTFGQGTKLEIK
As for B1, the Kd in assay [1] is 23 nM. The same molecule came in with a fold of IC50 against murine and chimeric 12A11 in assay [2] of less than 2 fold.
